Reference: US20240270841A1 (LG CHEM, published 2024)

Legend:
[1] = target: T1, human LILRA4 overexpressed on CHO cells (human, UniProt P59901 24-499); assay: flow cytometry (iQue screener), CHO cells overexpressing LILRA4, anti-human Fc-biotin + streptavidin-PE [panel LILRA4]
T1 construct: Full-length protein expressed in CHO cells; also called NP_036408
Protocol: (§1) In order to confirm whether or not the selected antibodies bind to human LILR family proteins other than LILRB1, a cell surface binding assay was performed. The CHO cells (prepared in Example 5) expressing each of various LILR family proteins on surface were added to U-bottom 96-well tissue culture plate (BD Falcon) at the amount of 1×10⁵ cells/well. The cells in each well were treated with the selected antibody in the final concentration of 20 ug/mL and incubated at 4° C. for 60 minutes. After washing with FACS buffer, the cells were treated with anti-human Fc-biotin antibody (Invitrogen) and incubated at 4° C. for 30 minutes. After washing with FACS buffer, the cells were treated with streptavidin (BD Pharmigen) labeled with PE or FITC fluorescence and incubated at 4° C. for 30 minutes. After washing with FACS buffer, the cells were resuspended and subjected to analysis using iQue screener (Sartorius). The cells treated with each LILR protein specific antibody (Table 27) were used as a positive control, and the cells treated with human IgG4 isotype control antibody (Biolegend) were used as a negative control.

[2] = target: T2, human LILRB1 overexpressed on CHO cells (human, UniProt Q8NHL6 24-650); assay: flow cytometry (iQue) on CHO cells overexpressing LILRB1, threefold dilutions
T2 construct: Full-length protein expressed from a vector in CHO cells; also called AAH15731
T2 sequence (Q8NHL6 other isoform, or with tags, fused parts or gaps limits assumed): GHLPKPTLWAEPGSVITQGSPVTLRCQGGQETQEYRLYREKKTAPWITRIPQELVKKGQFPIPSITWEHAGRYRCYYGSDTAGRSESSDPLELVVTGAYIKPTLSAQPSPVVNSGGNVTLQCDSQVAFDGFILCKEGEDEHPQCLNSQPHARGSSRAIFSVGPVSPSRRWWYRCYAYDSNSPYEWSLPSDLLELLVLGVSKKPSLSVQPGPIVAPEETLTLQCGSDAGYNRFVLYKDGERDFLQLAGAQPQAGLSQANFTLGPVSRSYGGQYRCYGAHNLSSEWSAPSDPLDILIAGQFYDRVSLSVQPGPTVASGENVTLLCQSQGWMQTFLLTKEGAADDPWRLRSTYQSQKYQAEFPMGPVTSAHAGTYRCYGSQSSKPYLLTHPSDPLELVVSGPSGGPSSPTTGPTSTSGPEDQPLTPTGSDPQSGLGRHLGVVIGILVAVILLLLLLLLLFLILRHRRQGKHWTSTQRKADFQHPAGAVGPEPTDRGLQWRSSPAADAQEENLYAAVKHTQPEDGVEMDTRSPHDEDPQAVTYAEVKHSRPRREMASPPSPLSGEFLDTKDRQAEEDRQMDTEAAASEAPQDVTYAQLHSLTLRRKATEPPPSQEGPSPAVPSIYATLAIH
Protocol: In order to determine EC₅₀ values of the antibodies prepared in Examples 1 and 4 for binding to human LILRB1-overexpressing cell lines, a cell surface binding assay was performed. Representing the prepared antibodies, EC₅₀ values of E3.1 and H11 antibodies were measured. The CHO cells prepared in Example 5, which overexpress LILRB1 on surface, were added to U-bottom 96-well tissue culture plate (BD Falcon) at the amount of 1×10⁵ cells/well. Threefold serial dilutions of E3.1 and H11 antibodies were prepared starting from the final concentrations of 600 ug/mL and 27 ug/mL, respectively. The cells were treated with each of the diluted antibodies and incubated at 4° C. for 60 minutes. After washing with FACS buffer, the cells were treated with anti-human Fc-biotin antibody (Invitrogen) and incubated at 4° C. for 30 minutes. After washing with FACS buffer, the cells were treated with streptavidin (BD Pharmigen) labeled with PE fluorescence and incubated at 4° C. for 30 minutes. After washing with FACS buffer, the cells were resuspended and subjected to analysis using iQue screener (Sartorius). EC₅₀ values were calculated using nonlinear regression formula of GraphPad Prism software, and the obtained results are shown in Table 28: […]

[3] = target: T3, human LILRB5 overexpressed on CHO cells (human, UniProt O75023 24-590); assay: flow cytometry (iQue screener), CHO cells overexpressing LILRB5, anti-human Fc-biotin + streptavidin-PE [panel LILRB5]
T3 construct: Full-length protein expressed in CHO cells; also called NP_006831
T3 sequence (O75023 24-590 P542R limits assumed): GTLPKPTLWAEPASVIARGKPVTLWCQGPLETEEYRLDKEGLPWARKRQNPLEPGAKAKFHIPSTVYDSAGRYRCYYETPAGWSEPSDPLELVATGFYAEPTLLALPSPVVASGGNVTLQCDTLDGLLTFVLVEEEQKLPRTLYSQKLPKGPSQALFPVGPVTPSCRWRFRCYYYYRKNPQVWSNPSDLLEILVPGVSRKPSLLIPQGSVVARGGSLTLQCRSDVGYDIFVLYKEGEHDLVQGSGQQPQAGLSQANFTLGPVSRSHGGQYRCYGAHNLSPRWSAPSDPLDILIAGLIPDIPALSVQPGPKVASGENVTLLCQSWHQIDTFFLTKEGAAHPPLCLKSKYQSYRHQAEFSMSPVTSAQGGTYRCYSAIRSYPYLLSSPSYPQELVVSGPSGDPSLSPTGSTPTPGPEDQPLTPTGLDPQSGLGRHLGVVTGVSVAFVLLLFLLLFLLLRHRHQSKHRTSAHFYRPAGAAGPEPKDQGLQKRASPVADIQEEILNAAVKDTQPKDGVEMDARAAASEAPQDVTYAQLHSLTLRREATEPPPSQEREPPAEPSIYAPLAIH
Protocol: as §1

[4] = target: T4, LILRB1 expressed on the surface of human natural killer cell KHYG-1 (human, UniProt Q8NHL6 24-650); assay: flow cytometry (iQue) on KHYG-1 NK cells, antibody 50 ug/mL
T4 construct: whole, on cells; also called LILRB1 on KHYG-1 cells; human NK cells (surface)
T4 sequence (Q8NHL6 24-650): as the sequence (Q8NHL6 other isoform, or with tags, fused parts or gaps limits assumed) above, with P45L, T119I, I132S, K602E counted along it
Protocol: In order to test whether or not 93 antibodies selected in Example 1.4 bind LILRB1 expressed on surface of immune cells, natural killer cell (NK cell) surface binding assay was performed. A human NK cell, KHYG-1 cell (JCRB) was cultured in RPMI 1640 medium (Gibco) supplemented with 10%(w/v) of FBS (Gibco) and 100 U/mL of interleukin-2 (Novartis). KHYG-1 cells were added to a U-bottom 96-well tissue culture plate (BD Falcon) at the amount of 5×10⁴ cells/well. Each of the selected antibodies was added to the well to the final concentration of 50 μg/mL per well and incubated at 4° C. for 1 hour.
In order to see the level of LILRB1-specific binding of the selected antibodies, a human IgG4 isotype control antibody (Biolegend) was treated in the same manner. After washing with FACS buffer, the cells were treated with an anti-human Fc-biotin antibody (life technologies) and incubated at 4° C. for 1 hour. After washing with FACS buffer, the cells were treated with streptavidin PE (BD Pharmigen) and incubated at 4° C. for 30 minutes. After washing with FACS buffer, the cells were resuspended and subjected to analysis using iQue screener (Sartorius).

[5] = target: T5, human LILRA5 overexpressed on CHO cells (human, UniProt A6NI73 42-299); assay: flow cytometry (iQue screener), CHO cells overexpressing LILRA5, anti-human Fc-biotin + streptavidin-PE [panel LILRA5]
T5 construct: Full-length protein expressed in CHO cells; also called NP_067073
T5 sequence (A6NI73 42-299 limits assumed): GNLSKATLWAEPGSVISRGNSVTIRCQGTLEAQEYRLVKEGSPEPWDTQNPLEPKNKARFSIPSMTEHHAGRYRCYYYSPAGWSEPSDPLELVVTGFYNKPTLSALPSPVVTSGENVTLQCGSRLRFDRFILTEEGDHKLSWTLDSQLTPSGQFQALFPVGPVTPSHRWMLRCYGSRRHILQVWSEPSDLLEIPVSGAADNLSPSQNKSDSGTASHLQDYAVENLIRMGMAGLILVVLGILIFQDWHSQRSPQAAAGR
Protocol: as §1

[6] = target: T6, human LILRB4 overexpressed on CHO cells (human, UniProt Q8NHJ6 22-448); assay: flow cytometry (iQue screener), CHO cells overexpressing LILRB4, anti-human Fc-biotin + streptavidin-PE [panel LILRB4]
T6 construct: Full-length protein expressed in CHO cells; also called NP_001265355
T6 sequence (Q8NHJ6 22-448 D223G/Q414R limits assumed): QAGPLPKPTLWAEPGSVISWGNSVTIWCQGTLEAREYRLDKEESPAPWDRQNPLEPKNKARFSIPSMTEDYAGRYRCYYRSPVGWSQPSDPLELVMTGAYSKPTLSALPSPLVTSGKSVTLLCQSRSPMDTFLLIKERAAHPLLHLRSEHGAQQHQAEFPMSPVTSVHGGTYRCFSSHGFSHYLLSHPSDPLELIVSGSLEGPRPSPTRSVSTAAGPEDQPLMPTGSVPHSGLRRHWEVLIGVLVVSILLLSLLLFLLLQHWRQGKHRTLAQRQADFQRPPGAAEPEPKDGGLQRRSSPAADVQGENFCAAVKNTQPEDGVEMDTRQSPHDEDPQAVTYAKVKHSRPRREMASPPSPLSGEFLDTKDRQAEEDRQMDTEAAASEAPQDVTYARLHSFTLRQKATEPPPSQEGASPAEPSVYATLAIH
Protocol: as §1

[7] = target: T7, human LILRA6 overexpressed on CHO cells (human, UniProt Q6PI73 24-481); assay: flow cytometry (iQue screener), CHO cells overexpressing LILRA6, anti-human Fc-biotin + streptavidin-PE [panel LILRA6]
T7 construct: Full-length protein expressed in CHO cells; also called NP_001347096
T7 sequence (Q6PI73 24-481 limits assumed): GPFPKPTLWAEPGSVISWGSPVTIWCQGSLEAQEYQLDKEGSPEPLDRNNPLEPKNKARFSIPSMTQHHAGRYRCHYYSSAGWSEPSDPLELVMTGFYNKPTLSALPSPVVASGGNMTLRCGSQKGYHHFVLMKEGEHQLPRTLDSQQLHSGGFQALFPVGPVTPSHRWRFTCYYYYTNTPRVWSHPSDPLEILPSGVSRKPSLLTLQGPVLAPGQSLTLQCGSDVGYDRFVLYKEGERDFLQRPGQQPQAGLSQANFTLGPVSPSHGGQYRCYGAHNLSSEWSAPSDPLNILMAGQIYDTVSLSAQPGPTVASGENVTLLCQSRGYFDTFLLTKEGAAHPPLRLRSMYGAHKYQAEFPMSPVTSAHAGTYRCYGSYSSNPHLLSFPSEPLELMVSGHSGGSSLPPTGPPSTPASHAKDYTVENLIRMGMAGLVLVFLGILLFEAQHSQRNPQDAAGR
Protocol: as §1

[8] = target: T8, human LILRB3 overexpressed on CHO cells (human, UniProt O75022 24-631); assay: flow cytometry (iQue screener), CHO cells overexpressing LILRB3, anti-human Fc-biotin + streptavidin-PE [panel LILRB3]
T8 construct: Full-length protein expressed in CHO cells; also called XP_006726377
T8 sequence (O75022 other isoform, or with tags, fused parts or gaps limits assumed): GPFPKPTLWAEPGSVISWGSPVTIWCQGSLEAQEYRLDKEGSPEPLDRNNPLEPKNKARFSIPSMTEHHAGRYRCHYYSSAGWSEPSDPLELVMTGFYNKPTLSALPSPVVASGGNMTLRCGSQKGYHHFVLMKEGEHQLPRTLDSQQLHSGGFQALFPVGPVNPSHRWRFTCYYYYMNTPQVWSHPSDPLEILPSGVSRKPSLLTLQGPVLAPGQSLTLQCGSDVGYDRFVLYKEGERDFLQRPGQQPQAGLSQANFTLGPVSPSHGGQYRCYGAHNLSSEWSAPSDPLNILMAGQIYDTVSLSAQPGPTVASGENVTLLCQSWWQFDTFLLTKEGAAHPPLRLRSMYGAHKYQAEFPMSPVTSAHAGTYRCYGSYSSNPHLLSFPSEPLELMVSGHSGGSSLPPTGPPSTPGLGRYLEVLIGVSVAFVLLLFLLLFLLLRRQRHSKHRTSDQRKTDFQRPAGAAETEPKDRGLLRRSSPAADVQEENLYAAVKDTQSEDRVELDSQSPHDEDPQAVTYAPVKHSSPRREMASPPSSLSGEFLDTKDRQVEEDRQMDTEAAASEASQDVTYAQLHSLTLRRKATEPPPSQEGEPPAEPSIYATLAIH
Protocol: as §1

[9] = target: T9, human LILRB1 protein (LILRB1-His, RnD systems Cat. No. 8989-T2) (human, UniProt Q8NHL6 24-458); assay: SPR (Biacore T200), antibody captured by anti-human IgG (Fc), LILRB1-His injected
T9 construct: Bought protein; also called human LILRB1-His; not shown: His tag
T9 sequence (Q8NHL6 24-458 limits assumed): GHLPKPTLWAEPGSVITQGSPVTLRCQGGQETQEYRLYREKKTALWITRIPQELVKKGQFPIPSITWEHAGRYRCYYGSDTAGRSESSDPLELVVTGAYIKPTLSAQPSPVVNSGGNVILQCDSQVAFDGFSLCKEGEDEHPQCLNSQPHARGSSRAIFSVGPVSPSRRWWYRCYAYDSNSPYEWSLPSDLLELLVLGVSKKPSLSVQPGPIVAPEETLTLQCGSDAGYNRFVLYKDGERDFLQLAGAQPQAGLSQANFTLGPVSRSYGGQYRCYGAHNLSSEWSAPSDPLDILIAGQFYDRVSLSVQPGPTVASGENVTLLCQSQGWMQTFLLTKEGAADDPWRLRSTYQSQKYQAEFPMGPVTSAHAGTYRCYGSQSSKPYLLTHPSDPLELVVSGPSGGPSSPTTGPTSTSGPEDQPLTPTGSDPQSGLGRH
Protocol: The binding affinities of the 93 antibodies, which were selected in Example 1.3, to the antigen, LILRB1, were measured using Biacore T200 (GE healthcare). An anti-human IgG (Fc) antibody (GE healthcare, Cat. No. BR-1008-39, final concentration of 25 μg/mL) was flowed at the flow rate of 5 μL/min for 360 seconds to be immobilized at 5000-7000 RU on Series S Sensor Chip CM5 (GE healthcare, Cat. No. BR-1005-30) using Amine Coupling Kit (GE healthcare, Cat. No. BR-1000-508).

[10] = target: T10, human LILRA3 overexpressed on CHO cells (human, UniProt Q8N6C8 24-439); assay: flow cytometry (iQue screener, BL1-H channel), CHO cells overexpressing LILRA3, anti-human Fc-biotin + labelled streptavidin [panel LILRA3]
T10 construct: Full-length protein expressed in CHO cells; also called AAH28208
T10 sequence (Q8N6C8 24-439 A105V limits assumed): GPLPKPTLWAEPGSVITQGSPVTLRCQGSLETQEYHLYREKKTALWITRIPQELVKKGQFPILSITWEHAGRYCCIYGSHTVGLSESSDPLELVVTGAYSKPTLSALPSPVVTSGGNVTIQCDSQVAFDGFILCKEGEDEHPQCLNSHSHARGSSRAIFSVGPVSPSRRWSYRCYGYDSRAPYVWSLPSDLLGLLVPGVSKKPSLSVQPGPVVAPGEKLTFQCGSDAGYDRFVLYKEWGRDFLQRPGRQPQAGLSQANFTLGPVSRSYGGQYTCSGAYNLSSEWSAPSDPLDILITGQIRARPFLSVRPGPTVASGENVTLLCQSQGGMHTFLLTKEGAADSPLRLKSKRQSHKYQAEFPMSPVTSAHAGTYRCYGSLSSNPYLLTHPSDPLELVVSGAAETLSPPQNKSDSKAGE
Protocol: as §1

[11] = target: T11, human LILRA2 overexpressed on CHO cells (human, UniProt Q8N149 24-483); assay: flow cytometry (iQue screener), CHO cells overexpressing LILRA2, anti-human Fc-biotin + streptavidin-PE [panel LILRA2]
T11 construct: Full-length protein expressed in CHO cells; also called AAH17412
Protocol: as §1

[12] = target: T12, human LILRB2 overexpressed on CHO cells (human, UniProt Q8N423 22-597); assay: flow cytometry (iQue screener), CHO cells overexpressing LILRB2, anti-human Fc-biotin + streptavidin-PE [panel LILRB2]
T12 construct: Full-length protein expressed in CHO cells; also called AAH36827
T12 sequence (Q8N423 other isoform, or with tags, fused parts or gaps limits assumed): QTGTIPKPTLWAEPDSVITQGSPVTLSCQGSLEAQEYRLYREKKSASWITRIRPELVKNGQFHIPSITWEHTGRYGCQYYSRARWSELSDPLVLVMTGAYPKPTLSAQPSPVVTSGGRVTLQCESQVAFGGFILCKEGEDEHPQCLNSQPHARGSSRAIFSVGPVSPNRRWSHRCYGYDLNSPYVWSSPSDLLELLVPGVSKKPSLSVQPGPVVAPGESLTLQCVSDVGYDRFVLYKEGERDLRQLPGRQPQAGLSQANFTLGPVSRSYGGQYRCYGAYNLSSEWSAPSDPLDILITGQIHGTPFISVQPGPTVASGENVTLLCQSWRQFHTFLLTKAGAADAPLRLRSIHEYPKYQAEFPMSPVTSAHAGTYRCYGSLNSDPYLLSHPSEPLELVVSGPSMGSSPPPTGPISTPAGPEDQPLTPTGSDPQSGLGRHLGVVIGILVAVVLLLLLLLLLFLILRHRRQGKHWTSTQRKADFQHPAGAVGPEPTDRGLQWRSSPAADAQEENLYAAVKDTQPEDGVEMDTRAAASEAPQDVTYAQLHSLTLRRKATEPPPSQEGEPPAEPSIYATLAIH
Protocol: as §1

[13] = target: T13, human LILRA1 overexpressed on CHO cells (human, UniProt O75019 17-489); assay: flow cytometry (iQue screener), CHO cells overexpressing LILRA1, anti-human Fc-biotin + streptavidin-PE [panel LILRA1]
T13 construct: Full-length protein expressed in CHO cells; also called NP_006854
Protocol: as §1

T1 sequence (P59901 other isoform, or with tags, fused parts or gaps limits assumed): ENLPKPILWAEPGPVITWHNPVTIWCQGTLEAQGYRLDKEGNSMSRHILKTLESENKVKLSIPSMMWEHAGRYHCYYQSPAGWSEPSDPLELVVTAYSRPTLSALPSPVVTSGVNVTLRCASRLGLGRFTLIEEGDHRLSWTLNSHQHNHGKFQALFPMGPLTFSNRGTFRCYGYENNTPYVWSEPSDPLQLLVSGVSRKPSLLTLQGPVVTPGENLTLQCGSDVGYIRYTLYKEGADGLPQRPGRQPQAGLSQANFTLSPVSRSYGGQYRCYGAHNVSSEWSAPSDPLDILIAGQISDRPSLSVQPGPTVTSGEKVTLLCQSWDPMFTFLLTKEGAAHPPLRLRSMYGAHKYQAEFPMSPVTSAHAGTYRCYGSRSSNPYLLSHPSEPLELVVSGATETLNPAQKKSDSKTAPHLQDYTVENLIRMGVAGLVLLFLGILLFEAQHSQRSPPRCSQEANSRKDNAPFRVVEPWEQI

| binding result [1] | EC50 [2] | binding result [3] | binding result [5] | binding result [6] | binding result [7] | binding result [8] | Kd [9] | koff [9] | kon [9] | binding result [10] | binding result [11] | binding result [12] | binding result [13] | Binder | % of population 2 [4] | Mean Fluorescence Intensity [4] |
| --- | --- | --- | --- | --- | --- | --- | --- | --- | --- | --- | --- | --- | --- | --- | --- | --- |
| no binding (tested: 20 ug/mL) | 0.376 nM | no binding (tested: 20 ug/mL) | no binding (tested: 20 ug/mL) | no binding (tested: 20 ug/mL) | no binding (tested: 20 ug/mL) | no binding (tested: 20 ug/mL) | 7.62 nM | 0.00226 s⁻¹ | 296000 M⁻¹ s⁻¹ | no binding (tested: 20 ug/mL) | – | – | – | anti-LILRB1 antibody H11 (antibody, human IgG4 S228P, V domains shown, human IgG4, lambda light chain; also called Antibody clone H11) VH: QVQLVQSGAEVKKPGASVKVSCKASGYTFTSYYMHWVRQAPGQGLEWMGIINPSGGSTSYAQKFQGRVTMTRDTSTSTVYMELSSLRSEDTAVYYCARDAGSSSDYWGRGTLVTVSS VL: SYELTQDPAASVALGQTVRITCQGDSLRSYYASWYQQKPGQAPVVVIYGRNNRPSGIPDRFSGSSSGDTASLTITGAQAEDEADYYCKSRDSSGNHYVFGTGTKLTVLG | 32.6% | 245000 |
| – | – | – | – | – | – | – | 45.2 nM | 0.00205 s⁻¹ | 45400 M⁻¹ s⁻¹ | – | – | – | – | anti-LILRB1 antibody G11 (antibody, human IgG4 S228P, V domains shown, human IgG4, lambda light chain; also called Antibody clone G11) VH: QVQLVQSGAEVKKPGESLKISCKGSGYSFTSYWIGWVRQMPGKGLEWMGIIYPGDSDTRYSPSFQGQVTISADKSISTAYLQWSSLKASDTAMYYCASQYYDGGYYMDVWGQGTLVTVSS VL: QSALTQPRSVSGSPGQSVTISCTGTSSDVGGYNYVSWYQQHPGKAPKLMIYDVSKRPSGVPDRFSGSKSGNTASLTISGLQAEDEADYYCSSYSSSSTLVVFGGGTKLTVLG | 40.1% | 263000 |
| no binding (tested: 20 ug/mL) | 7.15 nM | no binding (tested: 20 ug/mL) | no binding (tested: 20 ug/mL) | no binding (tested: 20 ug/mL) | no binding (tested: 20 ug/mL) | no binding (tested: 20 ug/mL) | – | – | – | no binding (tested: 20 ug/mL) | no binding (tested: 20 ug/mL) | no binding (tested: 20 ug/mL) | no binding (tested: 20 ug/mL) | anti-LILRB1 antibody E3.1 (antibody, human IgG4 S228P, lambda, human IgG4; heavy chain of E3; also called Antibody clone E3.1) heavy: not shown light: SYELTQDPAVSVALGQTVRITCQGDSLRNFYASWYQQKSGQAPVLVMYGKNNRPSGIPDRFSGSTSGNTASLTITGAQAEDEADYYCNSRDSSGSHLTGVFGGGTKVTVLGQPKANPTVTLFPPSSEELQANKATLVCLISDFYPGAVTVAWKADGSPVKAGVETTKPSKQSNNKYAASSYLSLTPEQWKSHRSYSCQVTHEGSTVEKTVAPTECS | – | – |
| – | – | – | – | – | – | – | 16.2 nM | 0.0095 s⁻¹ | 586000 M⁻¹ s⁻¹ | – | – | – | – | anti-LILRB1 antibody H2 (antibody, human IgG4 S228P, V domains shown, human IgG4, lambda light chain; also called Antibody clone H2) VH: QVQLVQSGAEVKKPGASVKVSCKASGYTFTSYDIHWVRQATGQGLEWMGWISAYNGNTNYAQKLQGRVTMTTDTSTSTAYMELRSLRSDDTAVYYCARDGGDAFDIWGQGTLVTVSS VL: SYELTQDPAVSVALGQTVRITCQGDSLRNYYASWYQQKPGQAPILVISGNNKRPSGIPDRFSGSSSGDTASLTISGAQAEDEADYYCNSLDSTYNHPIFGGGTKVTVLG | 29% | 239000 |
